Reference: the Human Domainome abundance scans (Beltran et al. 2025)
± gives the uncertainty stated by the source.

B1: SAM and SH3 domain-containing protein 1, residues 630 to 700; numbered along this chain, O94885 (parent)
chain: GRPPQPKSVEDLLDRINLKEHMPTFLFNGYEDLDTFKLLEEEDLDELNIRDPEHRAVLLTAVELLQEYDSN

Variants of: B1
Experiment: abundance fitness (aPCA) (normalised: wild type 0, dead -1); higher = more abundant; growth selection in yeast, the domain comes from the species named
Conditions: Homo sapiens

Row | Variant | abundance fitness
1 | GRPPQPKSVEDLLDRINLKEHMPTFLFNGYEDLDRFKLLEEEDLDELNIRDPEHRAVLLTAVELLQEYDSN [T35R] | 0.135 ± 0.037
2 | GRPPQPKSVEDLLDRINLKEHMPTFLFNGYEDLDTFKLLEEEDLDELNIRDPEHRAVLLTAVELTQEYDSN [L65T] | -0.767 ± 0.063
3 | GRPPQLKSVEDLLDRINLKEHMPTFLFNGYEDLDTFKLLEEEDLDELNIRDPEHRAVLLTAVELLQEYDSN [P6L] | -0.434 ± 0.045
4 | GRPPQQKSVEDLLDRINLKEHMPTFLFNGYEDLDTFKLLEEEDLDELNIRDPEHRAVLLTAVELLQEYDSN [P6Q] | -0.726 ± 0.1
5 | GRPPQGKSVEDLLDRINLKEHMPTFLFNGYEDLDTFKLLEEEDLDELNIRDPEHRAVLLTAVELLQEYDSN [P6G] | -0.655 ± 0.061
6 | GRPPQPKSVEDLLDRINLKEHMPTFLFNGYEDLDTFKLLEEEDLDELTIRDPEHRAVLLTAVELLQEYDSN [N48T] | -0.916 ± 0.2
7 | GRPPQPKSVEDLLDRINLKEHMPTFLFNGYEDLDTFKLLEEEDLDELAIRDPEHRAVLLTAVELLQEYDSN [N48A] | -0.343 ± 0.088
8 | GRPPQPKSVEDLLDRINLKEHMPTFLFNGYEDLDTFKLLEEQDLDELNIRDPEHRAVLLTAVELLQEYDSN [E42Q] | -0.023 ± 0.049
9 | GRPPQPKSVEDLLDRINLKEHMPTFLFNGYEDIDTFKLLEEEDLDELNIRDPEHRAVLLTAVELLQEYDSN [L33I] | -0.187 ± 0.056
10 | GRPPQPKSVEDLLDRINLKFHMPTFLFNGYEDLDTFKLLEEEDLDELNIRDPEHRAVLLTAVELLQEYDSN [E20F] | -0.502 ± 0.071
11 | GRPPQPKSVEDLLDRINLKDHMPTFLFNGYEDLDTFKLLEEEDLDELNIRDPEHRAVLLTAVELLQEYDSN [E20D] | -0.498 ± 0.11
12 | GRPPQPKSVEDLLDRINLKEHMPTFLFNGYEDLDTFKLLEEEDLDELNIRDPEHRAVLLTAVELLQEDDSN [Y68D] | 0.076 ± 0.054
13 | GRPPQPKSVEDLLDRINLKEHMPTFLFNGYEDLDTFKLLEEEDLDELNIRDPEHGAVLLTAVELLQEYDSN [R55G] | -1.02 ± 0.086
14 | GRPPQPKSVEDLLDRINLKEHMPTFLFNGYEDLDTFKLLEEEDLDELNIRDPEHTAVLLTAVELLQEYDSN [R55T] | -0.89 ± 0.083
15 | GRPPQPKSVEDLLDRINLKEHMPTFLFNGYEDLDTFKLLEEEDLDELNIRDPEHRAVLLTAVELLQEYNSN [D69N] | -0.289 ± 0.058
16 | GRPPQPKSVEDLLDRINLKEHMPTFLFNSYEDLDTFKLLEEEDLDELNIRDPEHRAVLLTAVELLQEYDSN [G29S] | -0.834 ± 0.059
17 | GRCPQPKSVEDLLDRINLKEHMPTFLFNGYEDLDTFKLLEEEDLDELNIRDPEHRAVLLTAVELLQEYDSN [P3C] | -0.073 ± 0.052
18 | GRPPQPKSVEDLLDRINLKEHMPTFLFNGYEDLDTFKLLEEEDLDELNIRAPEHRAVLLTAVELLQEYDSN [D51A] | -0.659 ± 0.056
19 | GRPPQPKSVEDLLDRINLKEHMPTFLFNGYEDLDTFKLLEEEDLDELNIREPEHRAVLLTAVELLQEYDSN [D51E] | -0.369 ± 0.063

Row | Variant | abundance fitness
20 | GRPPQPKSVEDLLDRITLKEHMPTFLFNGYEDLDTFKLLEEEDLDELNIRDPEHRAVLLTAVELLQEYDSN [N17T] | -0.842 ± 0.064
21 | GRPPQPKSVEDLLDRINLKEHMPTFLFNGYEDLDTFKLLEEEDLDELNIRDPEHRAVLLTAVKLLQEYDSN [E63K] | 0.244 ± 0.042
22 | GRPPQPKSVEDLLDRINLKEHMPTFLFNGYEDLDTFKLLEEEDLDELNIRDPEHRAVLLTAVELLQEYDSR [N71R] | 0.087 ± 0.052
23 | GRPPQPKSVEDLLDRINLKEHMPTFLFNGLEDLDTFKLLEEEDLDELNIRDPEHRAVLLTAVELLQEYDSN [Y30L] | -0.557 ± 0.049
24 | GRPPQPKSVEDLGDRINLKEHMPTFLFNGYEDLDTFKLLEEEDLDELNIRDPEHRAVLLTAVELLQEYDSN [L13G] | -0.752 ± 0.072
25 | GRPPQPKSVEDLLDRINLKEHMPTFLFNGYEDLDTFKLLEEEDLDELNIYDPEHRAVLLTAVELLQEYDSN [R50Y] | -0.012 ± 0.047
26 | GRPPQPKSVEDLLDRINLKEHMPTFLFNGYEDLDTFKLLEEEDLDELNIKDPEHRAVLLTAVELLQEYDSN [R50K] | 0.032 ± 0.058
27 | GRPPQPKSVEDLLDRINLKEHMPTFLFNGYEDLDTFKLLEEEDLDELNIRDPEHRAVLLFAVELLQEYDSN [T60F] | -0.613 ± 0.06
28 | GRPPQPKSVEDLLDRINLKEHMPTFLFNGYEDLDTFKLLEEEFLDELNIRDPEHRAVLLTAVELLQEYDSN [D43F] | -1.05 ± 0.085
29 | GRPPQPKSVEDLLDRINLKEHMPTFLFNGYEDLDTFKLLEEEPLDELNIRDPEHRAVLLTAVELLQEYDSN [D43P] | -0.939 ± 0.065
30 | GRPPQPKSVEDLLDRINLKEHMPTFLFNGYEDLDTFKLLEEEDLDELNIRDPEHRAVLLTAVELLQHYDSN [E67H] | -0.165 ± 0.047
31 | GRPPQPKSVEDLLDRINLKEHMPTFTFNGYEDLDTFKLLEEEDLDELNIRDPEHRAVLLTAVELLQEYDSN [L26T] | -0.225 ± 0.043
32 | GRPPQPKSVEDLLDRINLKEHMPTFAFNGYEDLDTFKLLEEEDLDELNIRDPEHRAVLLTAVELLQEYDSN [L26A] | -0.117 ± 0.04
33 | GRPPQPKSVEDLLDRINLKEHMPTFLFNGYEDLDTFKLTEEEDLDELNIRDPEHRAVLLTAVELLQEYDSN [L39T] | -0.79 ± 0.059
34 | GRPPQPKSVEDLLDRINLKEHMPTFLFNGYEDLDTFKLNEEEDLDELNIRDPEHRAVLLTAVELLQEYDSN [L39N] | -0.851 ± 0.075
35 | GRPPQPKSVEDLLDRINLKEHMPTFLFNGYEDLDTFKLVEEEDLDELNIRDPEHRAVLLTAVELLQEYDSN [L39V] | -0.422 ± 0.049
36 | GRPPQPKSVEDLLDRINLKEHMPTFLFNGYEDLDTFKLMEEEDLDELNIRDPEHRAVLLTAVELLQEYDSN [L39M] | -0.319 ± 0.055
37 | GRPPQPKSVEDLLDRINLKEHMPTFLFNGYEDLDTFKLHEEEDLDELNIRDPEHRAVLLTAVELLQEYDSN [L39H] | -0.812 ± 0.072
38 | GRPPQPKSVEDLLDRINLKEHMPTFLFNGYADLDTFKLLEEEDLDELNIRDPEHRAVLLTAVELLQEYDSN [E31A] | 0.207 ± 0.033
